Laboratory results published in publication PMC12669963, “PGAM5 cleavage and oligomerization equilibrates mitochondrial dynamics under stress by regulating DRP1 function” (Journal of Cell Science, 2025).

Target: the molecule itself
Assay: native gel or EMSA; native-PAGE of U2OS lysates (50 mM Tris-HCl pH 7.4, 150 mM NaCl, 0.5% Triton X-100), steady state or CCCP, immunoblot for endogenous PGAM5

B1: endogenous PGAM5 (natural protein, human (endogenous in HEK293 and U2OS), UniProt Q96HS1 1-289, looked up)
chain: MAFRQALQLAACGLAGGSAAVLFSAVAVGKPRAGGDAEPRPAEPPAWAGGARPGPGVWDPNWDRREPLSLINVRKRNVESGEEELASKLDHYKAKATRHIFLIRHSQYHVDGSLEKDRTLTPLGREQAELTGLRLASLGLKFNKIVHSSMTRAIETTDIISRHLPGVCKVSTDLLREGAPIEPDPPVSHWKPEAVQYYEDGARIEAAFRNYIHRADARQEEDSYEIFICHANVIRYIVCRALQFPPEGWLRLSLNNGSITHLVIRPNGRVALRTLGDTGFMPPDKITRS
notes: endogenous PGAM5; source: endogenous, HEK293 and U2OS lysate
- stoichiometry N: 2
